Three molecules from article PMC4341510, “Jasmonate-responsive expression of paclitaxel biosynthesis genes in Taxus cuspidata cultured cells is negatively regulated by the bHLH transcription factors TcJAMYC1, TcJAMYC2, and TcJAMYC4” can be followed below.

For one series, the target named is GUS (beta-glucuronidase) (UniProt P05804 1-603). The series can be described thus: EMSA; 25-75 ng protein; 20 mM HEPES-KOH pH 7.9, 20% glycerol, 0.2 mM EDTA, 100 mM KCl, 0.5 mM PMSF, 1 mM DTT, 15 mM MgCl2, 5 ug BSA; 175 fmol probe in 20 ul; gel 7% PAGE, 0.5X TBE, 4 C; binding temperature not stated. To be noted: protein: recombinant; label: 32P by Klenow fill-in when probe; 5' overhang 4 nt at both ends; labeled probe filled in. Background: Mobility shift assays separate free from complexed probe on a gel.

Series [1] addresses T1, TcJAMYC1 (Taxus cuspidata (cell culture line P991), UniProt B9VVN9 1-660). The series is described as follows: EMSA; 25-100 ng protein; 20 mM HEPES-KOH pH 7.9, 20% glycerol, 0.2 mM EDTA, 100 mM KCl, 0.5 mM PMSF, 1 mM DTT, 15 mM MgCl2, 5 ug BSA; 175 fmol probe in 20 ul; gel 7% PAGE, 0.5X TBE, 4 C; binding temperature not stated. To be noted: protein: recombinant; tags: N-terminal 6xHis (pDEST17); chain copies: 2; label: 32P by Klenow fill-in when probe; 5' overhang 4 nt at both ends; labeled probe filled in.

Series [2] concerns the target T1, TcJAMYC1. The series can be described thus: EMSA; 25-75 ng protein; 20 mM HEPES-KOH pH 7.9, 20% glycerol, 0.2 mM EDTA, 100 mM KCl, 0.5 mM PMSF, 1 mM DTT, 15 mM MgCl2, 5 ug BSA; 175 fmol probe in 20 ul; gel 7% PAGE, 0.5X TBE, 4 C; binding temperature not stated. To be noted: protein: recombinant; tags: N-terminal 6xHis (pDEST17); chain copies: 2; label: 32P by Klenow fill-in when probe; 5' overhang 4 nt at both ends; labeled probe filled in.

Series [3] deals with T1, TcJAMYC1. The series is described as follows: competition EMSA; vs CATGTG probe; competes better than CATGTG self; 20 mM HEPES-KOH pH 7.9, 20% glycerol, 0.2 mM EDTA, 100 mM KCl, 0.5 mM PMSF, 1 mM DTT, 15 mM MgCl2, 5 ug BSA; 175 fmol probe in 20 ul; gel 7% PAGE, 0.5X TBE, 4 C; binding temperature not stated. The conditions noted are these: protein: recombinant; tags: N-terminal 6xHis (pDEST17); chain copies: 2; label: 32P by Klenow fill-in when probe; 5' overhang 4 nt at both ends; labeled probe filled in.

T1 sequence (B9VVN9 entry or part of it): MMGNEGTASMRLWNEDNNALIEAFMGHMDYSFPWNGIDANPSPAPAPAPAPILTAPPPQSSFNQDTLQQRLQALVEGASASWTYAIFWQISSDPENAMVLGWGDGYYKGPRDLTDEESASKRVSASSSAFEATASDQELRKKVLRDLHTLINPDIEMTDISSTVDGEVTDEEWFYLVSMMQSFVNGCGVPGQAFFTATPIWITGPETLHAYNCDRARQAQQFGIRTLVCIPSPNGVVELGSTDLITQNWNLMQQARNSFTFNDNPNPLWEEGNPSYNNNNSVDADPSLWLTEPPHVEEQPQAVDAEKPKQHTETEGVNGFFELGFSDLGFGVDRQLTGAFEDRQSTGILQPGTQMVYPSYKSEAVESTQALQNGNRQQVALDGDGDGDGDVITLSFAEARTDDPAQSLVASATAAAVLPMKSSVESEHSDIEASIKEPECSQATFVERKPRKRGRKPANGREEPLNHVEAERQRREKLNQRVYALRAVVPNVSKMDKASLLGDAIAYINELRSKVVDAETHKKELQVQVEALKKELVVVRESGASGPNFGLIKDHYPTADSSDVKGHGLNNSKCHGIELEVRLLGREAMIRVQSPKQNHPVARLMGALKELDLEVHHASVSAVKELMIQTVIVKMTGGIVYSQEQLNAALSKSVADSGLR
Chain of GUS (beta-glucuronidase) (P05804 whole entry): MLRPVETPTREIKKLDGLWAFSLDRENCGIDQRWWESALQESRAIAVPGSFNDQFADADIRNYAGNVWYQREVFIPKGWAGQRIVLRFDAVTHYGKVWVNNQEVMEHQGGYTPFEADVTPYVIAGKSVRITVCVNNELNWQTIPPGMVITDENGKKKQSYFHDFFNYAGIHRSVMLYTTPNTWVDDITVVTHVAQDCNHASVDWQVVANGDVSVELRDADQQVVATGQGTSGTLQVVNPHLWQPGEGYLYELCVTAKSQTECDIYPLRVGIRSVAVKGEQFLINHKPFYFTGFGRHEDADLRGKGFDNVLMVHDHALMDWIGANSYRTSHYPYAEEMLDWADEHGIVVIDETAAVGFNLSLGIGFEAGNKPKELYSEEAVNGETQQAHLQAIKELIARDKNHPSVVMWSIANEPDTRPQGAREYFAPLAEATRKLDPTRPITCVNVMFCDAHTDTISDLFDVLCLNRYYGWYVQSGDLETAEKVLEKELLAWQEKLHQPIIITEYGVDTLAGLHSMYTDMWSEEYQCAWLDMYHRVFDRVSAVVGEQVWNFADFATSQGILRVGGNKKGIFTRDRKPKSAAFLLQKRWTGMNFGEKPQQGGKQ

B1: CATGTG E-box (dsDNA)
DNA 1: TAGCGCATCGATCATGTGATCGATCG
DNA 2: CGTACGATCGATCACATGATCGATGC
For B1, the binding result with GUS (beta-glucuronidase) was “no binding”; with TcJAMYC1 [1], “binds”.

B2: Mutated (no E-box) (dsDNA)
DNA 1: TAGCGCATCGATAAGCCTATCGATCG
DNA 2: CGTACGATCGATAGGCTTATCGATGC
Turning to B2, the binding result in the series with TcJAMYC1 [2] is “no binding”.

B3: CACGTG E-box (dsDNA)
DNA 1: TAGCATCGATCGCACGTGATCGATCG
DNA 2: CGTACGATCGATCACGTGCGATCGAT
Regarding B3, in the series with TcJAMYC1 [3], the binding result is given as “binds”.
